Source: FireProtDB (doi:10.1021/bi0027783)
Several values for one entry are separate records, joined by “and”; a condition that tells them apart may be missing. Equal values may be shown once.

Details: Allium sativum, reversible: yes, whole UniProt chain shown; for denaturant m value / denaturant midpoint (higher = more stable) / unfolding free energy: GdnHCl
[1] = pH 5, Thermal, DSC, citrate phosphate 20 mM
[2] = pH 5.5, Thermal, DSC, citrate phosphate 20 mM
[3] = pH 5.8, Thermal, DSC, citrate phosphate 20 mM
[4] = pH 6, Thermal, DSC, citrate phosphate 20 mM
[5] = pH 7.5, 50.7 °C, Thermal, CD, PBS 20 mM
[6] = pH 7.5, 53.3 °C, Thermal, CD, PBS 20 mM
[7] = pH 7.5, 55.7 °C, Thermal, CD, PBS 20 mM
[8] = pH 7.5, 56.3 °C, Thermal, CD, PBS 20 mM
[9] = pH 7.5, 60.8 °C, Thermal, CD, PBS 20 mM
[10] = pH 7.5, 64.2 °C, Thermal, CD, PBS 20 mM
[11] = pH 7.5, 66.4 °C, Thermal, CD, PBS 20 mM

RNILMNGEGLYAGQSLDVEPYHFIMQEDCN [wild type]
Tm [1]: 75.5 °C
unfolding enthalpy (van 't Hoff) [1]: 132 kcal/mol
Tm [2]: 74.6 °C
unfolding enthalpy (van 't Hoff) [2]: 130 kcal/mol
Tm [3]: 73.9 °C
unfolding enthalpy (van 't Hoff) [3]: 128 kcal/mol
Tm [4]: 73.1 °C
unfolding enthalpy (van 't Hoff) [4]: 125 kcal/mol
Tm (pH 7, Thermal, DSC, PBS 20 mM): 70.9 °C
unfolding enthalpy (van 't Hoff) (pH 7, Thermal, DSC, PBS 20 mM): 118 kcal/mol
denaturant m value (pH 7.5, 10 °C, CD, PBS 20 mM): 2.61 kcal/mol/M
denaturant midpoint (higher = more stable) (pH 7.5, 10 °C, CD, PBS 20 mM): 4.9 M
unfolding free energy (pH 7.5, 10 °C, CD, PBS 20 mM): 12.8 kcal/mol
denaturant m value (pH 7.5, 15 °C, CD, PBS 20 mM): 2.23 kcal/mol/M
denaturant midpoint (higher = more stable) (pH 7.5, 15 °C, CD, PBS 20 mM): 5.84 M
unfolding free energy (pH 7.5, 15 °C, CD, PBS 20 mM): 13 kcal/mol
denaturant m value (pH 7.5, 20 °C, CD, PBS 20 mM): 2.25 kcal/mol/M
denaturant midpoint (higher = more stable) (pH 7.5, 20 °C, CD, PBS 20 mM): 5.84 M
unfolding free energy (pH 7.5, 20 °C, CD, PBS 20 mM): 13.1 kcal/mol
denaturant m value (pH 7.5, 25 °C, CD, PBS 20 mM): 2.3 kcal/mol/M
denaturant midpoint (higher = more stable) (pH 7.5, 25 °C, CD, PBS 20 mM): 5.6 M
unfolding free energy (pH 7.5, 25 °C, CD, PBS 20 mM): 12.9 kcal/mol
denaturant m value (pH 7.5, 30 °C, CD, PBS 20 mM): 2.64 kcal/mol/M
denaturant midpoint (higher = more stable) (pH 7.5, 30 °C, CD, PBS 20 mM): 4.62 M
unfolding free energy (pH 7.5, 30 °C, CD, PBS 20 mM): 12.2 kcal/mol
denaturant m value (pH 7.5, 35 °C, CD, PBS 20 mM): 3.21 kcal/mol/M
denaturant midpoint (higher = more stable) (pH 7.5, 35 °C, CD, PBS 20 mM): 3.4 M
unfolding free energy (pH 7.5, 35 °C, CD, PBS 20 mM): 10.9 kcal/mol
denaturant m value (pH 7.5, 40 °C, CD, PBS 20 mM): 4 kcal/mol/M
denaturant midpoint (higher = more stable) (pH 7.5, 40 °C, CD, PBS 20 mM): 2.41 M
unfolding free energy (pH 7.5, 40 °C, CD, PBS 20 mM): 9.65 kcal/mol
denaturant m value (pH 7.5, 45 °C, CD, PBS 20 mM): 3.89 kcal/mol/M
denaturant midpoint (higher = more stable) (pH 7.5, 45 °C, CD, PBS 20 mM): 1.99 M
unfolding free energy (pH 7.5, 45 °C, CD, PBS 20 mM): 7.74 kcal/mol
denaturant m value (pH 7.5, 50 °C, CD, PBS 20 mM): 3.83 kcal/mol/M
denaturant midpoint (higher = more stable) (pH 7.5, 50 °C, CD, PBS 20 mM): 1.5 M
unfolding free energy (pH 7.5, 50 °C, CD, PBS 20 mM): 5.75 kcal/mol
heat capacity change of unfolding [5]: 3.64 kcal/mol/K
unfolding enthalpy (van 't Hoff) [5]: 115 kcal/mol
heat capacity change of unfolding [6]: 3.59 kcal/mol/K
unfolding enthalpy (van 't Hoff) [6]: 118 kcal/mol
heat capacity change of unfolding [7]: 3.5 kcal/mol/K
unfolding enthalpy (van 't Hoff) [7]: 124 kcal/mol
heat capacity change of unfolding [8]: 3.4 kcal/mol/K
unfolding enthalpy (van 't Hoff) [8]: 136 kcal/mol
heat capacity change of unfolding [9]: 3.32 kcal/mol/K
unfolding enthalpy (van 't Hoff) [9]: 142 kcal/mol
heat capacity change of unfolding [10]: 3.25 kcal/mol/K
unfolding enthalpy (van 't Hoff) [10]: 153 kcal/mol
heat capacity change of unfolding [11]: 3.2 kcal/mol/K
unfolding enthalpy (van 't Hoff) [11]: 173 kcal/mol
unfolding enthalpy (calorimetric) (pH 7.5, Thermal, DSC, PBS 20 mM): 96.4 kcal/mol and 116 kcal/mol and 118 kcal/mol
Tm (pH 8, Thermal, DSC, PBS 20 mM): 69.2 °C
unfolding enthalpy (van 't Hoff) (pH 8, Thermal, DSC, PBS 20 mM): 113 kcal/mol
